In PMC3589417:

Molecular target: 14-3-3ε (UniProt P62258)
Test: anti-FLAG co-IP of HA-TAK1, immunoblot
Details: reference: wild type

Sequence of UniProt P62258 (P62258 whole entry, looked up): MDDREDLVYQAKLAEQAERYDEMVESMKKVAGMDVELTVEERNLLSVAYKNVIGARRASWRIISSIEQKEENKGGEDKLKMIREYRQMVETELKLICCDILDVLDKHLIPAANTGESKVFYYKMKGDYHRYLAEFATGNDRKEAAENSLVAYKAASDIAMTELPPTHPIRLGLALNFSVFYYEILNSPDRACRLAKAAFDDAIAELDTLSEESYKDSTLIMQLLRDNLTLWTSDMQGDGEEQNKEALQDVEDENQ

TAK1 (MAP3K7) (from UniProt O43318-2) S192A
binding against the reference (sites S192): weaker

TAK1 (MAP3K7) (from UniProt O43318-2) T184A
binding against the reference (sites T184): weaker

TAK1 (MAP3K7) (from UniProt O43318-2) T187A
binding against the reference (sites T187): weaker
